# Measurements as given in publication doi:10.1101/2022.07.04.498669.
# Biological target: paDXPS as measured by native mass spectrometry (Pseudomonas aeruginosa) (UniProt Q9KGU7)
# Test: native MS
substance,measurement,value
paDXPS as measured by native mass spectrometry (from UniProt Q9KGU7 1-627) (enzyme),stoichiometry N,2
